B1: stg prom (cy5 / cy3) (dsDNA)
DNA 1: TAGCTCATCAGCTGATCGTGA
DNA 2: TCACGATCAGCTGATGAGCTA
B2: stg prom* (cy5) (dsDNA)
DNA 1: TAGCTCATACTAGTATCGTGA
DNA 2: TCACGATACTAGTATGAGCTA

Key:
[1] = target: T1, Daughterless (Da), GST fusion (Drosophila melanogaster, UniProt P11420 1-710); experiment: EMSA; Cy5 and Cy3 versions of the probe; not stated in the material (EMSA buffer, salt, pH and temperature not given); conditions: protein: recombinant; tags: N-terminal GST (pDEST 15); chain copies: 2; blunt
T1 sequence: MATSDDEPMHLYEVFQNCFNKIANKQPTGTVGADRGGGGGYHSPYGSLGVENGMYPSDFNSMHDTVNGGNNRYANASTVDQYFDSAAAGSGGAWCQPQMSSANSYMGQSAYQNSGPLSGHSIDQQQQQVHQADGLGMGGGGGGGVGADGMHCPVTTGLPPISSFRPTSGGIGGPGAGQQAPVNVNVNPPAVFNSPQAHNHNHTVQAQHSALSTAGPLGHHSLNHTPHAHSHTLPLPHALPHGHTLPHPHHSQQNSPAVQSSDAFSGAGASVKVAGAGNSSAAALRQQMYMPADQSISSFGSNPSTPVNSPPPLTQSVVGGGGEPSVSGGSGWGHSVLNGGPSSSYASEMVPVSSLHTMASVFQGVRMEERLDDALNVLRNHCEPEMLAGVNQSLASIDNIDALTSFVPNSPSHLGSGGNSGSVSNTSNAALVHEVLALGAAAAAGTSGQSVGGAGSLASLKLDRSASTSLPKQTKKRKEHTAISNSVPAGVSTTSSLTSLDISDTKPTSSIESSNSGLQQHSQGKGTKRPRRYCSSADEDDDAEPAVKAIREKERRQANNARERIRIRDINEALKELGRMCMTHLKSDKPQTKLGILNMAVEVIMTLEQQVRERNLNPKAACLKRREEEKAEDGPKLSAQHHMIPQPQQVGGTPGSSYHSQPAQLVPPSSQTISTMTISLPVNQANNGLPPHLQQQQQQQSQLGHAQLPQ

[2] = target: T1, Daughterless (Da), GST fusion; experiment: EMSA; direct Cy5 probe; not stated in the material (EMSA buffer, salt, pH and temperature not given); conditions: protein: recombinant; tags: N-terminal GST (pDEST 15); chain copies: 2; blunt

| Binder | binding result [1] | binding result [2] |
| --- | --- | --- |
| B1 | binds |  |
| B2 |  | no binding |

Source: paper PMC3961188, “The bHLH Factors Extramacrochaetae and Daughterless Control Cell Cycle in Drosophila Imaginal Discs through the Transcriptional Regulation of the cdc25 Phosphatase string”
